We go through three substances from publication PMC7319778.

The experiment deals with human toll-like receptor 4 (TLR4) on HEK293 cells expressing human TLR4-MD2-CD14 (human) (UniProt O00206). In words: flow cytometry on cells. (A flow cytometer gives signals particle by particle.)
UniProt O00206, sequence (O00206 24-839): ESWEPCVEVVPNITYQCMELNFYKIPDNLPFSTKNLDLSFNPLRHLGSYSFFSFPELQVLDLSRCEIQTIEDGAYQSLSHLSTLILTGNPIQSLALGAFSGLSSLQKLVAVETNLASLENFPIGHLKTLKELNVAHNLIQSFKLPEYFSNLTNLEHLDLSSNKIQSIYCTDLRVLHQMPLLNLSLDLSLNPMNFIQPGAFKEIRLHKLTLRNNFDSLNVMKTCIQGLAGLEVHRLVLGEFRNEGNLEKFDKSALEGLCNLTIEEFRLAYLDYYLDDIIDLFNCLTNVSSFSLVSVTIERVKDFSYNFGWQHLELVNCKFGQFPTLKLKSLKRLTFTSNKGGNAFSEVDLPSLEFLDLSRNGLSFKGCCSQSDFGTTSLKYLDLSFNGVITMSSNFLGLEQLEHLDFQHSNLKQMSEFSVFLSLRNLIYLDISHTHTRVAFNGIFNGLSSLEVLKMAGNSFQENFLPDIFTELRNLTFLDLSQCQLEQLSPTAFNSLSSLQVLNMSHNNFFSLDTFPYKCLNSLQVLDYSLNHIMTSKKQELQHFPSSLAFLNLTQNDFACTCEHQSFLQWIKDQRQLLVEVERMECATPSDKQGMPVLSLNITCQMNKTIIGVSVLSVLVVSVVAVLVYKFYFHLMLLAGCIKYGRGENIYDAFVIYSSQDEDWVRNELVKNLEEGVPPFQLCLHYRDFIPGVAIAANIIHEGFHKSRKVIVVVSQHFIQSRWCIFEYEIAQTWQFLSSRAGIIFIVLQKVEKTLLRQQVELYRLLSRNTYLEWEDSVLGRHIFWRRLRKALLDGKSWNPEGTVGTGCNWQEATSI

In turn, “hEDA-HPVE7-16 fusion protein (human extra domain A from fibronectin fused to E7 protein from HPV16)” had a level of fluorescence (percent, flow cytometry) of 19.5%.
“hEDA-HPVE7-16/18 fusion protein (human extra domain A from fibronectin fused to E7 proteins from HPV16 and HPV18)” came in with a TLR4-binding capacity (percent, flow cytometry) of 36.9%.
The same measure, in the same setting: the value for “mEDA-HPVE7-16 fusion protein (extra domain A from murine fibronectin fused to E7 protein from HPV16)” was 40.2%.
